Changes are numbered by the printed parent chain.
B1: H0610-G1dh/none-Hi-Kn010G3/L0000vk1-k0 (antibody, human IgG1, kappa)
heavy: not shown
chain: EPKSSDKTHTCPPCPAPELLGGPSVFLFPPKPKDTLMISRTPEVTCVVVDVSHEDPEVKFNWYVDGVEVHNAKTKPREEQYNSTYRVVSVLTVLHQDWLNGKEYKCKVSNKALPAPIEKTISKAKGQPREPQVCTLPPSRDELTKNQVSLWCLVKGFYPSDIAVEWESNGQPENNYKTTPPVLDSDGSFFLYSKLTVDKSRWQQGNVFSCSVMHEALHNRYTQKSLSLSP
light: DIQMTQSPSSLSASVGDRVTITCRSSQSLVHSNRNTYLHWYQQKPGKAPKLLIYKVSNRFSGVPSRFSGSGSGTDFTFTISSLQPEDIATYYCGQGTQVPYTFGQGTKVEIKRTVAAPSVFIFPPSDEQLKSGTASVVCLLNNFYPREAKVQWKVDNALQSGNSQESVTEQDSKDSTYSLSSTLTLSKADYEKHKVYACEVTHQGLSSPVTKSFNRGEC
notes: single-arm (one Fab)
B2: H0610-G1dh/none-Hi-Kn010G3/L0263-k0 (antibody, human IgG1, kappa)
heavy: not shown
chain: B1 chain
light: DIVMTQSPLSLPVTPGEPASISCRSSQSPVHSNRNTYIHWYQQKPGQAPRLLIYKVSNRFSGVPDRFSGSGSGTDFTLKISRVEAEDVGVYYCAQGTQVPYTFGQGTKLEIKRTVAAPSVFIFPPSDEQLKSGTASVVCLLNNFYPREAKVQWKVDNALQSGNSQESVTEQDSKDSTYSLSSTLTLSKADYEKHKVYACEVTHQGLSSPVTKSFNRGEC
notes: single-arm (one Fab)
B3: H0610-G1dh/none-Hi-Kn010G3/TR01L008-k0 (antibody, human IgG1, kappa)
heavy: not shown
chain: B1 chain
light: B2 light with R24Q, S25A, Q27E, P29L, I38L, S61R, A94G
notes: single-arm (one Fab)
B4: H0610-G1dh/none-Hi-Kn010G3/L0262-k0 (antibody, human IgG1, kappa)
heavy: not shown
chain: B1 chain
light: B2 light with S28P, I38L
notes: single-arm (one Fab)
B5: H0610-G1dh/none-Hi-Kn010G3/L0269-k0 (antibody, human IgG1, kappa)
heavy: not shown
chain: B1 chain
light: B2 light with H39Q, A94G
notes: single-arm (one Fab)
B6: H0610-G1dh/none-Hi-Kn010G3/L0267-k0 (antibody, human IgG1, kappa)
heavy: not shown
chain: B1 chain
light: B2 light with S25P, I38L, A94V
notes: single-arm (one Fab)
B7: H0610-G1dh/none-Hi-Kn010G3/L0248-k0 (antibody, human IgG1, kappa)
heavy: not shown
chain: B1 chain
light: B2 light with S25P, H39Q, A94Y
notes: single-arm (one Fab)
B8: H0610-G1dh/none-Hi-Kn010G3/L0258-k0 (antibody, human IgG1, kappa)
heavy: not shown
chain: B1 chain
light: B2 light with S28P, I38L, A94T
notes: single-arm (one Fab)
B9: H0610-G1dh/none-Hi-Kn010G3/TR01L011-k0 (antibody, human IgG1, kappa)
heavy: not shown
chain: B1 chain
light: B2 light with R24Q, S25A, Q27E, P29L, I38L, S61R, A94G, L109V, K112E
notes: single-arm (one Fab)
B10: H0610-G1dh/none-Hi-Kn010G3/L0246-k0 (antibody, human IgG1, kappa)
heavy: not shown
chain: B1 chain
light: B2 light with H39Q, A94S
notes: single-arm (one Fab)
B11: H0610-G1dh/none-Hi-Kn010G3/L0261-k0 (antibody, human IgG1, kappa)
heavy: not shown
chain: B1 chain
light: B2 light with H39Q, A94T
notes: single-arm (one Fab)
B12: H0610-G1dh/none-Hi-Kn010G3/TR01L018-k0 (antibody, human IgG1, kappa)
heavy: not shown
chain: B1 chain
light: B2 light with R24Q, S25A, Q27E, I38L, Q42L, A48S, R50Q, A94G
notes: single-arm (one Fab)
B13: H0610-G1dh/none-Hi-Kn010G3/L0266-k0 (antibody, human IgG1, kappa)
heavy: not shown
chain: B1 chain
light: B2 light with S28P, I38L, A94V
notes: single-arm (one Fab)
B14: H0610-G1dh/none-Hi-Kn010G3/TR01L012-k0 (antibody, human IgG1, kappa)
heavy: not shown
chain: B1 chain
light: B2 light with P29L, I38L, Q42L, A48S, R50Q, S61R, A94G, L109V, K112E
notes: single-arm (one Fab)
B15: H0610-G1dh/none-Hi-Kn010G3/TR01L020-k0 (antibody, human IgG1, kappa)
heavy: not shown
chain: B1 chain
light: B2 light with R24Q, S25A, Q27E, H39Q, Q42L, A48S, R50Q, A94Y
notes: single-arm (one Fab)
B16: H0610-G1dh/none-Hi-Kn010G3/TR01L009-k0 (antibody, human IgG1, kappa)
heavy: not shown
chain: B1 chain
light: B2 light with P29L, I38L, Q42L, A48S, R50Q, S61R, A94G
notes: single-arm (one Fab)
B17: H0610-G1dh/none-Hi-Kn010G3/TR01L019-k0 (antibody, human IgG1, kappa)
heavy: not shown
chain: B1 chain
light: B2 light with R24Q, S25A, Q27E, I38L, Q42L, A48S, R50Q, A94Y
notes: single-arm (one Fab)
B18: H0610-G1dh/none-Hi-Kn010G3/TR01L015-k0 (antibody, human IgG1, kappa)
heavy: not shown
chain: B1 chain
light: B2 light with I38L, Q42L, A48S, R50Q, A94G
notes: single-arm (one Fab)
B19: H0610-G1dh/none-Hi-Kn010G3/TR01L017-k0 (antibody, human IgG1, kappa)
heavy: not shown
chain: B1 chain
light: B2 light with H39Q, Q42L, A48S, R50Q, A94Y
notes: single-arm (one Fab)
B20: H0610-G1dh/none-Hi-Kn010G3/L0264-k0 (antibody, human IgG1, kappa)
heavy: not shown
chain: B1 chain
light: B2 light with S25P, I38L
notes: single-arm (one Fab)
B21: H0610-G1dh/none-Hi-Kn010G3/L0249-k0 (antibody, human IgG1, kappa)
heavy: not shown
chain: B1 chain
light: B2 light with S25P, H39Q, A94S
notes: single-arm (one Fab)
B22: H0610-G1dh/none-Hi-Kn010G3/TR01L010-k0 (antibody, human IgG1, kappa)
heavy: not shown
chain: B1 chain
light: B2 light with P29L, I38L, S61R, A94G, L109V, K112E
notes: single-arm (one Fab)
B23: H0610-G1dh/none-Hi-Kn010G3/L0259-k0 (antibody, human IgG1, kappa)
heavy: not shown
chain: B1 chain
light: B2 light with A94T
notes: single-arm (one Fab)
B24: H0610-G1dh/none-Hi-Kn010G3/L0265-k0 (antibody, human IgG1, kappa)
heavy: not shown
chain: B1 chain
light: B2 light with H39Q
notes: single-arm (one Fab)
B25: H0610-G1dh/none-Hi-Kn010G3/L0243-k0 (antibody, human IgG1, kappa)
heavy: not shown
chain: B1 chain
light: B2 light with Q27E, S28P, I38L, S61R, A94G
notes: single-arm (one Fab)
B26: H0610-G1dh/none-Hi-Kn010G3/L0268-k0 (antibody, human IgG1, kappa)
heavy: not shown
chain: B1 chain
light: B2 light with H39Q, A94V
notes: single-arm (one Fab)
B27: H0610-G1dh/none-Hi-Kn010G3/TR01L016-k0 (antibody, human IgG1, kappa)
heavy: not shown
chain: B1 chain
light: B2 light with I38L, Q42L, A48S, R50Q, A94Y
notes: single-arm (one Fab)
B28: TR01H040-E22Hh/none-Hi-Kn010G3/L0000-k0 (antibody, human IgG1, kappa, L234A L235A, N297A)
heavy: QVQLVESGGGLVQPGRSLRLSCAASGFTFSNAWMHWVRQAPGKGLEWVAQIKDKSQNYATYYAESVKGRFTISRADSKNSIYLQMNSLKTEDTAVYYCRYVHYSASYGVDAWGQGTTVTVSSASTKGPSVFPLAPSSKSTSGGTAALGCLVKDYFPEPVTVSWNSGALTSGVHTFPAVLQSSGLYSLSSVVTVPSSSLGTQTYICNVNHKPSNTKVDKKVEPKSCDKTHTCPPCPAPEAAGGPSVFLFPPKPKDTLMISRTPEVTCVVVDVSHEDPEVKFNWYVDGVEVHNAKTKPREEQYASTYRVVSVLTVLHQDWLNGKEYKCKVSNKALPAPIEKTISKAKGQPREPQVYTLPPSRCELTKNQVSLSCAVKGFYPSDIAVEWESNGQPENNYKTTPPVLDSDGSFFLVSKLTVDKSRWQQGNVFSCSVMHEALHNHYTQKSLSLSPDYKDDDDK
chain: B1 chain
light: B2 light with P29L, I38L, A94G
notes: single-arm
B29: CE115HA251-E22Hh//-Hi-Kn010G3/L0000-k0 (antibody, human IgG1, kappa, L234A L235A, N297A)
heavy: B28 heavy with L11V, D53A, Q56N, A75D, I81L, S104Y, A105Y, S106Y
chain: B1 chain
light: B2 light with P29L, I38L, A94G
notes: single-arm
B30: TR01H006-E22Hh/none-Hi-Kn010G3/L0000-k0 (antibody, human IgG1, kappa, L234A L235A, N297A)
heavy: B28 heavy with D53A, S104G, S106Y, A111I
chain: B1 chain
light: B2 light with P29L, I38L, A94G
notes: single-arm
B31: TR01H007-E22Hh/none-Hi-Kn010G3/L0000-k0 (antibody, human IgG1, kappa, L234A L235A, N297A)
heavy: B28 heavy with D53S, Q56N, S104G, S106Y, A111I
chain: B1 chain
light: B2 light with P29L, I38L, A94G
notes: single-arm
B32: TR01H014-E22Hh/none-Hi-Kn010G3/L0000-k0 (antibody, human IgG1, kappa, L234A L235A, N297A)
heavy: B28 heavy with D53G, Q56N, E64P, S104G, S106Y, A111I
chain: B1 chain
light: B2 light with P29L, I38L, A94G
notes: single-arm
B33: TR01H012-E22Hh/none-Hi-Kn010G3/L0000-k0 (antibody, human IgG1, kappa, L234A L235A, N297A)
heavy: B28 heavy with D53A, Q56N, S104Y, A105Y, A111I
chain: B1 chain
light: B2 light with P29L, I38L, A94G
notes: single-arm
B34: TR01H003-E22Hh//-Hi-Kn010G3/L0000-k0 (antibody, human IgG1, kappa, L234A L235A, N297A)
heavy: B28 heavy with L11V, D53A, Q56N, A75D, I81L, Y100R, S104G, S106Y
chain: B1 chain
light: B2 light with P29L, I38L, A94G
notes: single-arm
B35: CE115HA252-E22Hh//-Hi-Kn010G3/L0000-k0 (antibody, human IgG1, kappa, L234A L235A, N297A)
heavy: B28 heavy with L11V, D53A, Q56N, A59K, T60K, A75D, I81L, S104Y, A105Y, S106Y
chain: B1 chain
light: B2 light with P29L, I38L, A94G
notes: single-arm
B36: TR01H013-E22Hh/none-Hi-Kn010G3/L0000-k0 (antibody, human IgG1, kappa, L234A L235A, N297A)
heavy: B28 heavy with D53G, S104G, S106Y, A111I
chain: B1 chain
light: B2 light with P29L, I38L, A94G
notes: single-arm
B37: CE115HA192-E22Hh//-Hi-Kn010G3/L0000-k0 (antibody, human IgG1, kappa, L234A L235A, N297A)
heavy: B28 heavy with L11V, D53A, Q56N, A75D, I81L, S104Y, S106Y
chain: B1 chain
light: B2 light with P29L, I38L, A94G
notes: single-arm
B38: CE115HA121-E22Hh//-Hi-Kn010G3/L0000-k0 (antibody, human IgG1, kappa, L234A L235A, N297A)
heavy: B28 heavy with L11V, Q50L, D53A, Q56N, A75D, I81L, S104G, S106Y
chain: B1 chain
light: B2 light with P29L, I38L, A94G
notes: single-arm

Biological target: T1, soluble human GPC3 (human, UniProt P51654 25-563, limits assumed)
T1 construct: soluble human GPC3 as analyte; also called glypican 3
Assay: SPR (Biacore), soluble human GPC3

T1 sequence (P51654 other isoform, or with tags, fused parts or gaps limits assumed, form in doubt): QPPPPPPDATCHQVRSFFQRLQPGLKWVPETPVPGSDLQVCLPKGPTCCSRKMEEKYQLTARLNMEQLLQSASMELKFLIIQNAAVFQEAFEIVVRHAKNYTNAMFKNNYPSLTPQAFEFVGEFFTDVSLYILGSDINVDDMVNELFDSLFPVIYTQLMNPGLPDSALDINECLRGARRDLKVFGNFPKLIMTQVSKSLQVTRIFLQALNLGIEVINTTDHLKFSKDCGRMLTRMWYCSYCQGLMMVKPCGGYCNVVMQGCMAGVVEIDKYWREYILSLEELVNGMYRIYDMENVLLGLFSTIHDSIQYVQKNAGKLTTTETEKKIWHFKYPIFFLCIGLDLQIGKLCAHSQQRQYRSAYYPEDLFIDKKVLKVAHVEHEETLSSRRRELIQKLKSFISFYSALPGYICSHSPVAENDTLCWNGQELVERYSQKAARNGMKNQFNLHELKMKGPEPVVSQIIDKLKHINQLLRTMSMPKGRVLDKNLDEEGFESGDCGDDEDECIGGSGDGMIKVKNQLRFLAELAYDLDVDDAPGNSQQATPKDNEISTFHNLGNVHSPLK

| Binder | Kd |
| --- | --- |
| B1 | 2.16 nM |
| B2 | 0.564 nM |
| B3 | 3.48 nM |
| B4 | 0.211 nM |
| B5 | 0.459 nM |
| B6 | 0.179 nM |
| B7 | 0.0555 nM |
| B8 | 0.000352 nM |
| B9 | 4.02 nM |
| B10 | 0.00121 nM |
| B11 | 0.0107 nM |
| B12 | 2.17 nM |
| B13 | 0.213 nM |
| B14 | 4.25 nM |
| B15 | 0.0224 nM |
| B16 | 3.81 nM |
| B17 | 1.15 nM |
| B18 | 2.16 nM |
| B19 | 0.00827 nM |
| B20 | 0.219 nM |
| B21 | 0.00686 nM |
| B22 | 2.92 nM |
| B23 | 0.334 nM |
| B24 | 0.0087 nM |
| B25 | 0.649 nM |
| B26 | 0.0169 nM |
| B27 | 1.08 nM |

Biological target: T2, soluble human CD3ε chain (human, UniProt P07766 23-126, limits assumed)
T2 construct: the text says soluble human CD3ε chain; also called human CD3 epsilon chain
Assay: SPR (Biacore)

T2 sequence (P07766 23-126 limits assumed): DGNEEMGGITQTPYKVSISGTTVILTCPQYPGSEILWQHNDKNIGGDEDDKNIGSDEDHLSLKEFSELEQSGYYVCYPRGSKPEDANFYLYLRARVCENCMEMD

| Binder | Kd |
| --- | --- |
| B28 | 36 nM |
| B29 | 22.3 nM |
| B30 | 23 nM |
| B31 | 21.7 nM |
| B32 | 38.7 nM |
| B33 | 7.94 nM |
| B34 | 40.3 nM |
| B35 | 9.48 nM |
| B36 | 49.4 nM |
| B37 | 50.5 nM |
| B38 | 67.6 nM |

— US20210388110A1 (published 2021)
